Experiment: soluble on expression in E. coli; label from the status in PepcDB or PDB records

Row | Sequence | soluble on expression in E. coli
1 | MGSDKIHHHHHHLITVQDLELRAGARLLMDQVSFRIDKGDKIGLVGRNGAGKTTLTRVLAGEGLPAAGKVTRSGEIGYLPQDPRTPDMEQLARDRILSVRGLDIAVGKLRLAHEEMASEDAAVQRKAMNRYDRLESEFLAAGGYAAEAEAAAICSNLALPDRLLNQPLKTLSGGQRRRVELARILYSDAETMLLDEPTNHLDADSIAWLRDFLKNHQGGLIVISHDTELLEATVNKVFLLDANRAQIDFYNMDWKRYLQQRETDERARKRERANAEKKAQVLFDQANKMRAKATKAVAAQNMAKRAERLLSGLEAVRENDRVAALRFPDPSPCGKTPLTADGLSKSYGSLEIFTDVDLAIDRGSKVVILGLNGAGKTTLLRMLAGVDKPDTGEVIAGHGLKVGYYAQEHETLDVDRTVLQNMRSSAPDMNDSEVRGILGSFLFSGDDVDKPAGVLSGGEKTRLALATIVASSANVLLLDEPTNNLDPASRTEILGALRNYTGAVVLVSHDEGAVEALNPERVVLLPDGVEDHWNEDYLDLITLA | not soluble
2 | MGRIKRGLDYFPMSTSFMHDRMVRRIMRREGDSAFATLVETLSYIYAGKGYYISVGDEFYEELVDSLYSTELDDVKRIISLSVEYGLFDAGLFRQYNILTSADIQRQYLFITKRRSSALIEPDYCLLESEEITSYRSSQSGKSSTDDSLDSECAEALNGDADHKTACTVTSSFDSVTMEDEIATSGTQNKRKQIKINQNKVNHLPNPPQGGDEGGKYLKSRTAVTQEDIDCLQPPCDGVQRNFQGLTDNLRLYKVPPSEQYAIILKSNFGAIGNPVWKGFNTIRGSNGKIRLPGHYLLSIIN | not soluble
3 | HGNQLTAYTLRLGDNCLVLSQRLGEWCGHAPELEIDLALANIGLDLLGQARNFLSYAAELAGEGDEDTLAFTRDERQFSNLLLVEQPNGNFADTIARQYFIDAWHVALFTRLMESRDPQLAAISAKAIKEARYHLRFSRGWLERLGNGTDVSGQKMQQAINKLWRFTAELFDADEIDIALSEEGIAVDPRTLRAAWEAEVFAGINEATLNVPQEQAYRTGGKKGLHTEHLGPMLAEMQYLQRVLPGQQW | soluble
4 | MLIRSAKPEDAEFIGSIRVAAWQAAYRGFMPDTYLASLDPGANLDELRAALRAENPPFTLRIAETEGQPIAFSILGKPRYNADQSIVELWALNVHPTHWRKGAGQQLVRQVLLDAKEQKFVSVELWCIQGNLAAQRLYEICGFVPNSQVRTTSSLTGYPLHELAYTYAL | not soluble
5 | MQAGARLARQDNAMADAPAPAPKRARAGRPPTLAAPRERILEEAARLFARSGYENSSVADLAAAIGVSKAALYHYFPTKQDIYDAIILETLAGLLQAVTREVERQREACERLRAFMVGHARYFARHHEQFVTMLIGYSGMALPERADAAQLRDRYEQLLRDLLEQGMATGTLRRLDVAATGRAVLSMLNWMVRWYKPGQGDSAEQIADGYYDLLFNGLRI | soluble
6 | MSLRTYLPGESEEVLSEGWTLTLTPADACETPSDIPASLESLHVSVPGTVGQALEAAGKFDRLAPVALNDRDAWYRLTMISDARERAILRFDGLSTIAEIFFNGELIAASQSMFERLEVPVQMTGADELSICFRALAPRLEKPGPRARWRPQMMNTQGLRLIRTTALGYMPGWCPEIHSAGPWRPISLIKQDGVLCTLRSSLDDTGTGKVSIVLQANRDIQSARLICAGYSINLSKAEDGKLLGELIIPGVEIWWPHTHGRPALHEVVLELDGNQHRLGRTGFRQVEIDHGEDGNGFGLKVNGQPVFCRGAVWTTADIVRLPGTRPDYEPWLKKAAEAGMNMIRVGGTMAYETPEFFALCDELGIMVWQDAMLANFDYPAKDDGLRQHIVMEIEQLLESTALSPSFAIFCGGSEMYQQGAMLGLPEQIWKGTLTEEILPELVAEKRPDAAYVANSPSGGALPFFPNAGVGHYYGVGAYCRPLEDARRADLRFAAECLAFANIPEQETLDRYLPGVAVHDPRWKARTPRDRGASWDFEDVRDHYLKLLYEAEPDVLRREDGALYLDMSRAATAEVMEATFAEWRRSGSSCQGALVWTLQDLVPGAGWGIIDAAGRPKSVWHALKRAFRPVQVSLSDEGTNGLDIHILNDTGDSLNTMLELTCLREGLQPVVHAKRPLALLPRESQTIAATDLFGAFFDTTYAYRFGPPSHDVTIARLRDIATGHVIADAFHFPLGRKKALHAANLQVAISETNGHWSLEIGTDRLAQSVHITAEGYRACESWFHLGPGEARKIGLLPETATTEAPPSGEVVSLGSSRRFSEGHHHHHH | not soluble
7 | MHAPLVSKDLDYISTANHDQPPRHLGSRFSAEGEFLPEPGNTVVCHLVEGSQTESAIVSTRQRFLDMPEASQLAFTPVSSLHMTVFQGVIESRRALPYWPQTLPLDTPIDAVTDYYRDRLSTFPTLPAFNMRVTGLRPVGMVMKGATAEDDSIVALWRDTFADFFGYRHPDHDTYEFHITLSYIVSWFEPECLPRWQAMLDEELEKLRVAAPVIQMRPPAFCEFKDMNHFKELVVFDKR | soluble
8 | MAGDPMTMRVCYRCGISEEEGGPLINGLCQVCFRKENPVLLLPSEINTELCQNCGSYKKRGVWIDPQNYELESLIFEVAENALLEALEESLDKVKEFEVVPWEELENINNIPVGKAFVGFIPVDYHIQYFPAVIVYRVRVKARLHELQLEPHDEIKETTVYVRQTVCPRCQRFLAGYYEAILQVRVEDREFTKEEREAVTKLVQEKVDEIMKKDRMGFIQDTIEKEEGIDFYMGSTSAARKLANVIREHFGGEISEAYELVGLDRMTSKEVYRTSVTVRLPKFRRGDIVEDRHGRIYKVENVSGKGMRLKNLETWESQHYDWKTIKREKIDKAEHEEKKALLISQTPREAQFMDMSTYETFEVLKPGVNLEEGQLYRLVKVKGRFYIKEKEGEELEHHHHHH | not soluble
9 | MQKELINEIIGEVKPKAIALFGSQAKGKAGKFSDYDLLIITKDEESRNKAEKFEKGKVEIHALTMRTALELIHKGDPFFTQIVKECKPIYGEFYIKFLREVAENVGKSKVVA | not soluble
10 | MGVLPKINIVARQFRKCSMAATSTSTSSSDNSVASTAFVQEHVRQMQNDIMVQLIPQDESGAVENLADLNVTSNLGRMTHYYFQQGGKMLRPTVSLLMGNACNSAANRSISEEYLAMLSTERSGIAAHLSVCQNQYKIGMIAEMIHTASLVHDDVIDEANTRRGSASVNAVWGNKMSVLVGDFILARATQILCSIGKPNIISVMASIIEDLVLGEFMQMSTTPTDATPVDRMKAYIEKTHRKTASLFASSCRSAAILADGSDLKLHEIAFEYGRNLGIAFQLADDLLDFIATADEMGKPVAADLKLGLATAPVLYACEQYPELNTMLLRKFKHDGDAEKAREIVVNSDGMDKTRRLIDSYSQKAVEMASSLPNRNESTEHLIKLAMSQSDRKF | not soluble
11 | SLERSQVFNILRMMPKGAALHLHDIGIVTMDWLVRNVTYRPHCHICFTPRGIMQFRFAHPTPRPSEKCSKWILLEDYRKRVQNVTEFDDSLLRNFTLVTQHPEVIYTNQNVVWSKFETIFFTISGLIHYAPVFRDYVFRSMQEFYEDNVLYMEIRARLLPVYELSGEHHDEEWSVKTYQEVAQKFVETHPEFIGIKIIYSDHRSKDVAVIAESIRMAMGLRIKFPTVVAGFDLVGHEDTGHSLHDYKEALMIPAKDGVKLPYFFHAGETDWQGTSIDRNILDALMLNTTRIGHGFALSKHPAVRTYSWKKDIPIEVCPISNQVLKLVSDLRNHPVATLMATGHPMVISSDDPAMFGAKGLSYDFYEVFMGIGGMKADLRTLKQLAMNSIKYSTLLESEKNTFMEIWKKRWDKFIADVATK | soluble
12 | MLFDLGYVDLQDRSNAEILTHLITKKAILLLGDKQNPADLLAIQDEVQERYLVNFSLFQSMPDFWGLEQNFPIMPLDRLDEEPTRSASIWDITCDSDGEISYSKDKPLFLHDVDVEKENYFLGFFLVGAYQEVLGMKHNLFTHPTEAIISINEKGYEVEGIIEAQSILDTLEDLDYDIHAILEHHHHHH | not soluble
13 | MTLPPTSIADRIARAQPAFSRTQHRMAEYVLAHQFRVATMTIDEFAVAVGVSVATANRFARVLELPGYPQFRAELARGFESALEPVEKLRIELAHSASAAQVFAATLQEDIHNAQMTLQALDAGACERAVEAILNAERVFIIGFGTSGFLAGLLQRGLCMHLHAVESLAGPGGVSHAARQMSRMTSRDLVIALAFPRYLADTVTLANAAKLAGVPVLVLTDKPTSPLAPCATVALYAHMSRQLSSNAETAALGLIEALSAAVAHRAKNSIAAAAGVAQSVMPWLIHGEAGAGKR | not soluble
14 | KETCSTGLYTHSGECCKACNLGEGVAQPCGANQTVCEPCLDSVTFSDVVSATEPCKPCTECLGLQSMSAPCVEADDAVCRCAYGYYQDEETGHCEACSVCEVGSGLVFSCQDKQNTVCEECPEGTYSDEANHVDPCLPCTVCEDTERQLRECTPWADAECEHHHHHH | soluble
15 | MKRSIKHIYLLSDATGETVERVVRAALSQFRDVEARFHRVTRIRSREDVIWALEEVLREPGMVVYTLVDTELAQLLRDEAEAHGLDAIDLISPLLFKLSDFFGEAPQKEPGLLHQINSEYHKRVDAVDFTVKHDDGQDPRGLAKADFILVGVSRSSKTPLSMYLAHKGYKVANVPIVKGIDPPPELYKVDQKRVVGLIIDAERLVQIRTARLRNLGQMPKGSYADYERIEEELEFCRRLYRRNPQWLVIDVTKKSVEESAAEIIQKLAGLEHHHHHH | not soluble
16 | MSLGEKTKLEQIKDNGKLVVGTSAEFPPFEFHKVVDGKDSIKGFDIMLAEEFAKELGVKVEIKDMSFDGLIGALNADQVDIVLAGMSPTPEREKSVDFSELYYLSRNAVIVKDADIDKVKTEDDLKKLRVGVQAGSIQEEYVVNTLKMTTTKSLKAIPDLITELKNGNIDAVVTNEAVSLINVKKYDGIKMANTEVGKDVTEGMAAAIKKSDNNKDFIELLNKKIKELQDGKKIEEFLNEASTEAASEGHHHHHH | soluble
17 | MGHHHHHHSHMFSEECIMDVIGCLEYDPALSQPRKHREFLTKTAKFKEVIPISDPELKQKIHQTYRVQYIQDMVLPTPSVFEENMLSTLHSFIFFNKVEIVGMLQEDEKFLTDLFAQLTDEATDEEKRQELVNFLKEFCAFSQTLQPQNRDAFFKTLSNMGILPALEVILGMDDTQVRSAATDIFSYLVEYNPSMVREFVMQEAQQNDDVSKKLTEQKITSKVNIICTNSKYLYIGSYNCFYYSF | soluble
18 | MSLALVYSRALSGMNAPLVEVEAHLANGLPHFNIVGLPDMEVKESRDRVRAAIIQSGFEFPAKKITVNLAPADLPKESGRFDLPIAIGILAASGQVAPEKLEEYEFAGELALSGLLRPVRGALAMAWQGMQAKRAFVLPEENAGQAAVMRGITVYGARSLGEVAAHLNGIEPLAQTECQVPQMPFEHGGQPDLCDVKGQHTARLALEIAAAGGHSLLMMGPPGTGKSMLSQRLPGILPPLTEDELVEVWALRSLLPNHQQQLDSNRPFRSPHHSASAAAMVGGGSDPRPGEISLAHHGVLFLDELPEFDRKVLEVLREPLENGEIHISRAARQAVYPAKFQLVAAMNPCPCGYLGHPVKPCRCTPESVARYRSKISGPLLDRIDLTIEVPSLSAAELMQQEAGESSASVLERVIAARDKQYARQGKVNAALSVSELDTSARIQKEAQEALGGLLEKLSLSARSFHRIMRVARTLADLAGDEEVGRSHVMKAIGFRRAL | not soluble
19 | MTKKDEVKELEVKNNIPEAEKKPFNKFGKQEKHTVEDVEYTFQFPGTRAAQAILDNSKGPSNTFSDVAYHSQLMDSVIVTPKLNWDYWDEHEGYREVMALADNFLGRMLN | not soluble
20 | MFLTWENLFLTNQSRRRLKLLVVERSYNNVGNFLKEYFGGFFEIVNFDDLRLTMVDMVSLSSEYDVIVTDMILEQTTDSEILFFNQMAPSVVANRLTDM | not soluble
21 | TLFDKIWDAHVVTTVEDGPTQLYIDRLYCHEVTSPQAFAGLRERGIKVLRPEKVFCMPDHNTPTHDQDKPIEDPISKTQVDTLTKNAKDFGLTHFGMMHPKNGIIHVVGPERALTLPGMTIVCGDSHTSTHGAMGAIAFGIGTSEVEMVLASQCILQSRPKT | not soluble
